Assay: label from the status in PepcDB records

Row | Sequence | protein production
1 | MEITLSKSLLIAVVLAPLLGSIIAGLFGRQVGRKGAQYVTILGVAVSCVLSCVTLYQLVEQGASPFNQNLYTFFDVGNYSAHVGFMVDRLTAMMMVVVTFVSLLVHIYTIGYMEEDPGYQRFFSYISLFTFSMLTLVMSNNFLQLFFGWEAVGLVSYLLIGFWFKRPTAVFANMKAFLVNRVGDFGFILGIAGVLLWFGSLDYSTVFANATTMAGAKVQLFAGHEWSVMTLICICLFIGAMGKSAQVPLHVWLPDSMEGPTPISALIHAATMVTAGIFMVARMSPLFELSETALNFILFIGATTAFFTGLIGIVQNDIKRVVAYSTLSQLGYMTVALGVSAYSAAVFHLMTHAFFKALLFLAAGSVIIGMHHEQDMRKMGGLRKYMKVTYWTSVIGTLALVGTPFFSGFYSKDTIIEAAAHHAHESHNWVATYGYWAVLGGVLVTSFYSFRLLFLTFHGKERFRDAHAHDVHSHHDSAHTDAEAQVHSHDAHAHDDHGHGHHGAHEPHESKWVVTLPLVLLAIPSIAIGFFTIGPMLFGTDWQGHHAVHAMKGQAVSFFTGIVDFYDPARDTVGALAEEFHGPVAFALHGMLAAPFFLTVAGLLLAALFYLWKPELATKSRKTFAPIVWLLENKYGFDKLWINGFAGGGVVLGKASRAVDTHVVDGAVVNGSARLIDLAANLLRRTQSGFLYHYAFAMIIGLIALLAVLMHFWR | failed
2 | MKSVGQALENQGRVPRNTNDELIQMILADAQVAEFIKTHQLSQREINISMSKFNQFLIERQKFKNKDSQYIAKGYEPILVMNEGYADVSYLETRELIEAQKKQAISDRINLVNLPKSYRNIRMTDFDINNESRMKAMSQLLDFVETYPSYNHKGLYLYGDMGVGKSYLMAAMARELSERKGVSTTLLHFPSFAIDVKNAISSGTVKDEIDAVKSVPILILDDIGAEQATSWVRDEILQVILQHRMLEELPTFFTSNYSFNDLERKWANIKGSDETWQAKRVMERVRYLAIEFHLEGPNRR | failed
3 | MNVKKNIALPAIMVGTFILEGVISLQFGNGLFNDKHLFIPHFLLVMLTIMTCFYKRNTTLVYAFILGLLFDIYYTGVMGIYFAIFPFTVYITDKFMKVLQNNIFLVGLITVFNIILTESLVYAFYYLIGSTTMTIPVFIDQRLWTTILFNLAFFLVIFFPFRLFLDRLVKSE | failed
4 | MKESRNTLNSSELNTTTSWSKHDTHWVLSLFGTAVGAGILFLPINLGIGGFWPLVAMAFLAFPMTYLAHRGLARFVLSSKIKNADFTDVVEEHFGAKAGRSISLLYFLSIFPILLIYGVGITNTVDSFMVNQAGMEALPRELLSGVLVFALIAIMMAGEKVMLRAFAVMVYPLVAILAFLSFYLMPNWTMPVLDTPDMGAFASTMWLAVPVVIFSFSHAAAISSFANVQRRHYGDDADAKAELILRCTSIMLIAFVLLFVFSCVLALSPEQLAQAKAQNVSVLSYLANATDNPFIATLGPLVAFVAITSSFLGHFLGARESLNGLITKHSNLSETRVDRISVVVLFLSIWAAAIMNPSILGMMEALSGPVIAMILFIMPMLAVHKIESMKQYRGKLSTYFVLITGIVAVSALVFSLLS | not failed
5 | MKAVIMAGGFGTRIQPLTSSIPKPMIPLLNRPIMLHIVELLKKYEITDLVMLLYHQPAVIKNFFRDGTDFGVKITYVTPLQDMGTAGAVKCAEKFLDERFLVISGDLLTDFNLQKIIDSHEDNKALATITLTSVKDPLQFGVVITDKEKRITQFLEKPGWGEVISDTINTGIYVFEPEIFAHIPEEENYDFSQDLFPKLLEQQKPLFGYTAKGYWRDIGNTDSYREAHHDIFKGKVNVKIDEAKQDLVGKDLRLGSDVNLDEHVTLEGTVVVGDNSQVFESAHIKDTVIGRNCTIEPGVRLNRCVIWDNVYVKKGAKLNDGVLCSNVRVGHGVVMEEGVIVADDTSIGEEAYIKRDVKIWPRKVIEAGATVTGNLIWGEKWKKSLFEGAMVKGLTNMELTPEFVAKLGCAYGTMLPKGSHIISGRDSYRSCRMLKRSFIGGLLSAGINVRDLTMVPMPVLRYKLRTFGEVGGIYFRQAIDDPASTEIVFLDGDGLDFSSSMGKNVERIFFKENFRRAHHTEPGALSEIPQQVTDFYREGFLHTIGKSPLQKKQFKVVIDFNHSSASQLLPGILTQMGCEVISLNAYVDEERGIQAVAERQQSLAQLSKIVATLEASAGFWLDPGTEGVIVVDETGKVYEGAELLPLMVGLALRSGEKGLFAVPVSAPSAIERMVQERGSAVTRTKSADRAMIEATLSSEVVLAGTMDGRFAFPKFQSAFDGMFAIAKTIELVAKGGLSISRVAAEIPQRVFLQTRVPCVWDMKGGIMRKMSEDSLDKEASFIDGIKVHFGEDWALVLPDQYLPYVHIVAEARDAKTAQKLLDEYKKKVEGWKRELQ | failed
6 | MSKLDLHQMTTQDLVALFAKVTVEQDDALLGNQISRFNRLFGVMAEIADELKARDGDQRTALLSLFEYPNMQVRLQAAKLTLAVAPVKAREQLEAIVSSKWFPQAGDAGMCLDLLDDGTFKPK | not failed
7 | MSLLERLNQDMKLYMKNREKDKLTVVRMVKASLQNEAIKLKKDSLTEDEELTVLSRELKQRKDSLQEFSNANRLDLVDKVQKELDILEVYLPEQLSEEELRTIVNETIAEVGASSKADMGKVMGAIMPKVKGKADGSLINKLVSSQLS | not failed
8 | MKWNLDPSHTSIDFKVRHMGIASVRGSLKVLSGSVETDEAGRPIQVEAVIDAASIATGEPQRDGHLRSADFLHAEQYPEIRFVSTQIEPLGGNRYRIQGNLTIRDITKPVTLEAEVSAPIKDPWGMQRVAASASGQINRKDWNLTWNQVLELGALLVGEEVKFNLEVEAVAPAPVAAQ | not failed
9 | MIRLGKMSDLDQILNLVEEAKELMKEHDNEQWDDQYPLLEHFEEDIAKDYLYVLEENDKIYGFIVVDQDQAEWYDDIDWPVNREGAFVIHRLTGSKEYKGAATELFNYVIDVVKARGAEVILTDTFALNKPAQGLFAKFGFHKVGEQLMEYPPYDKGEPFYAYYKNLKE | failed
10 | MIAHMTRDNEYKTIKDRLITLVEKEQAHRTLNQYNSDKANHDITRLSNKMRLLRRLIEHPVILNEKVSSLGNNTKRAVKGLATGLVMVAVTITAISARDYWGEITASFIIAMSFIYALREIFKDDLRDMLWRWISKGKAKWRRHYFDPTTGKQVGDKEEWLDYKKLSELPDRIQAIRKKRIVQREEQILHYRSHTEMSTSRFMSGYEETRETMMIDLRAIMRQMDKGSNHIYQLNNGQVSRESVEKRHLLNLIAKEKHHKGEPTYYRWKIVLNRSRIVDIESIPLT | failed
11 | MASEHFDMWESRFSADGYLFGTAPNAFLASCHDLLPKQGRALAIADGEGRNGVFLAECGLSVLSVDFSPTAQAKAHKLAAERGVTIETRTADLLSWQWPGGFDVIAGIFFQFVEPEQRPQIFQQIRAALKPGALLLIEGYRPKQLAYKTGGPSRAENLYTRELLEQAFGDFDNLSIRERDSEIVEGAGHAGLSALIDLIGWKPKLEHHHHHH | not failed
12 | IRYAIERQRVEEALRHSEERFRVALKNSPIFVFNQDRDLRYTWIYNPIAGWTVEEMLGKQDSEIMSEQDAQCLTAIKYHVLTTGIGTRQVVSIGTPLGTKYYDLTVEPLRNESQDIVGITCACIDISERKLAEAKIREQ | not failed
13 | YTEQPIDLVPTQPLPNASFDNFKLTCSNTKFADDLNQMTGFTKPASRELSVTFFPDLNGDVVAIDYRHYSASFKKGAKLLHKPIVWHINQATTKTTFKPNTWCLRCLWSTKPVDT | not failed
14 | MNAYSQSLAPANTPLRETFSLDGTWEFRHETDRAWRHAKVPAHWQACFEDLAVSFGSATYRRTFTLPAEWSAREIAIRFGAVSDLATVSINGTEIGRHEGGYLPFEFVIPPALLKAENTVEVLACLPDAYRDESGADFAEIPHGKQSWYGPQGGIWQSVLIEARDPAHISSLRLDPIWPEARLDLKARFASMVAGSLKIEIIGPQGMPVFTGNIPAAGNTLDHSIQLDSVAPWSPDSPNLYTITTILSADGVEIDSRQESFGFRRFEAKDGFLHLNGKPLYLRAALDQDYYPDGFGAPPSLDLLEDQLRKAKAMGLNCLRCHIKVPDPRYYEVADRLGMLIWSEIPNIETFTPASAERLRTTMEGILARDGNHPSIVIWTLINEDWGTRLREAAEQRQWISDMVDWLRVEDPLRLVVDNSACFPNVHVKTDINDYHFYRTAVDRREEWDTLCREFAGNADWTFSTEKEAVRTRKEPLVLSEFGVWGLPDPARLREKNGRDPWWMAYGATWADGTALPQGIEARFRELALEKVFGDLGRFIEKVQWYQYMNLKYEIEVIRTHAPIGGYVITELTDVHWEGNGLMDMARNPRVFAKALPAVNSDIVIAPGAARHAVYEGQTASFDIKVSSGGTALPEGSRLVWEFGAEKGEIPLPAMAPMQVHNAPITTTADAVPVPAIQKARFQVVSPDGSVLSQNFETLAVYGKRDALPPIRFASNDDGISERLSALGHVSVSPHEADVFITKDIDADRVEAIHSGQRVLQIVDKDPGRLRDDAPPRDGPMSIEIDPGAGGMVSGPYFSFPGYNLVNRHKSIWRGDWVGNFSWLRRDGVFAHVPGGPLFDLSFTGVAPHQVMTGLRPWEFQGRVYAGVVIGWVHKPAAFIIEKRLGRGKLVATTFRLHQEAPDVDPLATALYDGLFALATRP | failed
15 | MLQEDLRKKAGQLFAVGFHGVVPSPEIKTLIHEYGIGGIVLFKRNIQNAMQLQLPGPMALGATHSPELAYQVGQVTGETLRFFGINMNYAPVCDINSEPLNPVIGPRSPGDDPEFVGRFASAAAQGLREQKIIPSVKHFPGHGDTAVDSHYGLPVIEKTREQLERCELIPFRRAVAEGVEAVMTAHISLPAIGDGKLPATLSADVLSILRNEMQFEGMIITDCLEMDGIRATYGTEQGAVLSLEAGSDSIMICHTYAVQVASIQKVCEAVQSGQLSASRLEEAYRRVVKLKSKFLSWDTALLTRSLDDLVTLNRKAA | failed
16 | MSTRSARIVVVSSRAAAGVYTDDCGPIIAGWLEQHGFSSVQPQVVADGNPVGEALHDAVNAGVDVIITSGGTGISPTDTTPEHTVAVLDYVIPGLADAIRRSGLPKVPTSVLSRGVCGVAGRTLIINLPGSPGGVRDGLGVLADVLDHALEQIAGGDHPR | not failed
17 | MNFDRTFLTFLGVIMLVHLHIFFAFLSLALLVIRGAMQLNGKNWRSIKLLKILPHLSDTLLIVSGVVILYLFAFGIEWWLVAKFALLILYIVFAAKFFSKKVSQPKSIFFWLACVSFIGAMLIAYLK | failed
18 | MGLLVVKAQRQLRKIDNSKVFQGVVIAVILLSALLIGAKTHNLSSNVVAILLLMDVAVTVFFAIEISIRYLACPQKKNFFKSGWNIFDTVIVIGSLVPSGGSGVLLARLLRVFRVLRLVSMVPELRLLINALLKAIPRMGYIALLMFVIFYIYAAIGSMYFHSINEVLWGDVSISMLTLFRVATFEDWTDVMYETMAVHPLSWIYYLTFIFLTAFIFLNMMVGTVLEVMSQEHEQFRAEQHGESGDGGEPASRAQIDKLESEIAEIKALLLAKT | failed
19 | EDKKGGTKPSNEAALTKTENLDFRLSFNKIKVTTDQNHFSGGTSIEQLKQWFGDPNKSEQRNAGNITLDSYTWVKDGAVINAQLYKNSTVARSISNFSFSREAKIGKEDYDELKIGESYKKVVEKLGEPDVLSQSMSSDKEEMQTVWSSGIKTKSSSATIELYFENGLLKNKTQKDLE | not failed
20 | MNRLLNEKVEEFKKGVLKAGWFIEKMFRNSISSLVERNESLAREVIADEEVVDQMEVEIQEKAMEVLGLFSPIGKPLLTVTAGIRVAELIENIADKCHDIAKNVLELMEEPPLKPLEDIPAMANQTSEMLKFALRMFADVNVEKSFEVCRMDSKVDDLYEKVREELLLYMMESPKYVKRALLLLEIAGNIEIIADYATNIVEVSVYMVQGEAYKCYHDELLLFKKSGGVLFESSD | not failed
21 | MRLGRIASPDGVAFVSIEGELDNPAEMIAREIAEHPFGTPNFTGRSWPLADVRLLAPILASKVVCVGKNYADHIAEMGEATGPVPADPVIFLKPNTAIIGPNVPIRLPANASPVHFEGELAVVIGRPCKDVSAAQAAENILGYTIGNDVSARDQQRSDGQWTRAKGHDTFCPVGPWIVTDLNPLDPGDLELRTEVNGEVKQRSRTSLLIHDIGSIVEWISAVMTLLPGDLILTGTPAGVGPIEDGDTVSITIEGIGTLTNPVVRKGKS | failed
